Assay results reported in US20240228660A1 (IP2IPO INNOVATIONS, published 2024).
Positions count from the first letter of the chain named. Like-named read-outs stand apart in the source and are kept apart here. Each block holds one binder with its values, some of them ahead of it.

Key:
[1] = biological target: T1, human full-length VWF (human, UniProt P04275 764-2813); test: SPR, Biacore T200, antibody captured on Protein A, full-length VWF as analyte, single-cycle kinetics
Protocol: (§1) Antibodies were captured on Protein A sensor chip. The system was purged using running buffer (10 mM HEPES pH 7.4, 300 mM NaCl, 3 mM EDTA, 0.05% P20) and a series S Protein A chip was docked in the Biacore T200. The surface was conditioned with 10 mM glycine-HCl pH 1.5 regeneration solution (3 injections). Each antibody was diluted to ˜0.8 μg/ml in running buffer to capture ˜350 RU on flow cells 2, 3 and 4 (flow cell 1 used as in-line reference cell). Single-cycle kinetic analysis of human full-length VWF binding to antibodies was performed using the following parameters:

[2] = biological target: T2, human native VWF (human, UniProt P04275 764-2813); test: SPR, Biacore 8K, antibody captured on Protein A, native VWF as analyte (4.4-50 nM), single-cycle kinetics, 1:1 fit; replicate 1
T2 construct: Multimeric glycoprotein; also called native VWF protein; native VWF (305 kDa)
Protocol: (§2) The surface plasmon resonance (SPR) experiments were performed using a Biacore 8K (Cytiva) equipped with a research grade Protein A series S sensor chip. […] Flow cell 1 was left blank to serve as a reference surface. […] The complex was allowed to associate and dissociate for 120 seconds and 7200 seconds respectively. The surfaces were regenerated with 30 see injections of 10 mM glycine-HCl pH1.5.
(§3) Data were collected at a rate of 10 Hz. The data were fit to a simple 1:1 interaction model using the global data analysis option available within the Biacore Insight Evaluation software version 3.0.12.15655.

[3] = biological target: T2, human native VWF; test: SPR, Biacore 8K, antibody captured on Protein A, native VWF as analyte (4.4-50 nM), single-cycle kinetics, 1:1 fit; replicate 2
Protocol: as §2, §3

[4] = biological target: T2, human native VWF; test: SPR, Biacore 8K, antibody captured on Protein A, native VWF as analyte (4.4-50 nM), single-cycle kinetics, 1:1 fit; replicate 3
Protocol: as §2, §3

[5] = biological target: T2, human native VWF; test: ELISA, native VWF coated at 20 ng/well, semi-log dilution of the mAb from 10 µg/ml, anti-human IgG-HRP/TMB
Protocol: (§4) Purified monoclonal antibodies originally derived from scFvs selected from rabbit immune library were tested for binding towards C1-C6-Fc, VWFAD4-C6, BSA (100 ng/well) and human native VWF (Imperial College, 20 ng/well). […] Protein targets were immobilized overnight on ELISA plates, blocked and incubated with a semi-log dilution series of purified recombinant monoclonal antibodies (starting concentration 10 μg/ml), averages of duplicate values are shown. Antibody binding towards human native VWF, VWFAD4-C6 and BSA were detected with antihuman IgG-HRP or anti-human IgG-HRP and TMB staining. ELISA reactivities towards C1-C6-Fc were performed in a separate ELISA experiment and were detected with anti-human IgGκ-HRP and TMB staining.

[6] = biological target: T1, human full-length VWF; test: SPR, Biacore T200, antibody captured on Protein A, full-length VWF as analyte, single-cycle kinetics; remark: listed apart in the source
Protocol: as §1

[7] = biological target: T1, human full-length VWF; test: as above; remark: listed apart in the source
Protocol: as §1

[8] = biological target: T2, human native VWF; test: ELISA, native VWF coated at 20 ng/well, semi-log dilution of the mAb from 10 µg/ml, anti-human IgG-HRP/TMB; remark: listed apart in the source
Protocol: as §4

[9] = biological target: T1, human full-length VWF; test: SPR Biacore T200, antibody captured on Protein A chip, full-length VWF as analyte, single-cycle kinetics
Protocol: as §1

B1: 1-A2 (antibody, human IgG1, V domains shown)
VH: QSVEESGGRLVPPGTPLTLTCTVSGIDLTSNAMNWVRQAPGKGLEWIGGIYGHDTSYYAAWAKGRFTISRTSTTVDLKMTRPTTDDTATYFCARGFIYFDIWGTGTLVTISS
VL: AIEMTQTPPSLSASVGETVRIRCLASEDIYSGISWYQQKPGKPPTLLIYGASNLESGVPPRFSGSGSGTDYTLTIGGVQAEDAATYYCLGGHSHSTTDLTFGAGTKVEIK
notes: Rabbit-derived variable domains cloned into a human IgG1 expression vector and expressed as monoclonal antibody; also called clone 1-A2; antibody 1-A2
Kd [1]: 8.02 pM | Kd [2]: 164 pM | Kd [3]: 527 pM

B3: 3-H9 (antibody, human IgG1, V domains shown)
VH: QSLEESGGRLVTPGTPLTLTCSVSGFSLSNYDMSWVRQAPGKGLEWIGSIHAIGITYYANWAEGRFTISKTSTTVDLKMTSLTTEDTATYFCARGLVDLNMWGPGTLVTVSS
VL: AIKMTQTPSSVSVAVGGTVTINCQSSQSVYSNNLLSWYQQKPGQPPKLLIYDASTLESGVPSRFKGSGSGTQFTLTISGVQCEDAATYYCQGSYYSSGWYNTFGGGTEVVVE
notes: Rabbit-derived variable domains expressed as human IgG1; also called clone 3-H9; antibody 3-H9
Kd [4]: 25 pM | EC50 (read off the curve) [5]: ~8 ng/mL | Kd [2]: 48.7 pM | Kd [6]: 60.3 pM | Kd [3]: 84 pM

B6: 1-G5_H2_L1 (antibody, human IgG1, kappa)
heavy: not shown
light: DPQMTQSPSSLSASVGDRVTITCQASQSVYNNNYLSWYQQKPGKAPKLLIYDASTLASGVPSRFSGSGSGTDFTLTISSLQPEDFATYYCQGSYYSGGWDTAFGGGTKVEIKTVAAPSVFIFPPSDEQLKSGTASVVCLLNNFYPREAKVQWKVDNALQSGNSQESVTEQDSKDSTYSLSSTLTLSKADYEKHKVYACEVTHQGLSSPVTKSFNRGEC
notes: humanised, human IgG1 kappa
Kd [9]: < 1000 pM | Kd [7]: 0.174 pM | koff [7]: 2.25e-08 s⁻¹ | kon [7]: 129000 M⁻¹ s⁻¹

B7: 1-G5_H1_L1 (antibody, human IgG1, kappa)
heavy: not shown
light: B6 light
notes: humanised, human IgG1 kappa
Kd [9]: < 1000 pM | Kd [7]: 14.8 pM | koff [7]: 6.03e-07 s⁻¹ | kon [7]: 40700 M⁻¹ s⁻¹

B12: 3-H9_H1_L0 (antibody, human IgG1, kappa, V domains shown)
VH: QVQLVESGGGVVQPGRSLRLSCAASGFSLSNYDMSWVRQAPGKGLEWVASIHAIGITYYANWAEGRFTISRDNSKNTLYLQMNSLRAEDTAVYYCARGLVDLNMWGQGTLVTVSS
VL: DIQMTQSPSSLSASVGDRVTITCQSSQSVYSNNLLSWYQQKPGKAPKLLIYDASTLESGVPSRFSGSGSGTDFTLTISSLQPEDFATYYCQGSYYSSGWYNTFGGGTKVEIKT
notes: humanised, human IgG1 kappa
Kd [9]: < 1000 pM | Kd [7]: 15.6 pM | koff [7]: 2.84e-07 s⁻¹ | kon [7]: 18200 M⁻¹ s⁻¹

B13: 3-H9_H0_L0 (antibody, human IgG1, kappa, V domains shown)
VH: QVQLVESGGGVVQPGRSLRLSCAASGFTFSNYDMSWVRQAPGKGLEWVASIHAIGITYYANWAEGRFTISRDNSKNTLYLQMNSLRAEDTAVYYCARGLVDLNMWGQGTLVTVSS
VL: B12 VL
notes: humanised, human IgG1 kappa
Kd [9]: < 1000 pM | Kd [7]: 1.05 pM | koff [7]: 8.46e-08 s⁻¹ | kon [7]: 80900 M⁻¹ s⁻¹

B15: 1-D5_H1_L0 (antibody, human IgG1, kappa, V domains shown)
VH: QVQLVESGGGVVQPGRSLRLSCAASGFSLNNYIMGWVRQAPGKGLEWVAIISTGGSTYYASWAKGRFTISRDNSKNTLYLQMNSLRAEDTAVYYCARGGSSAGAGFNIWGQGTLVTVSS
VL: DIQMTQSPSSLSASVGDRVTITCQASQSINSGLAWYQQKPGKAPKLLIYKASTLASGVPSRFSGSGSGTDFTLTISSLQPEDFATYYCQSYHYISANGATFGGGTKVEIKT
notes: humanised, human IgG1 kappa
Kd [9]: < 1000 pM | Kd [6]: 1.6 pM | koff [6]: 1.25e-07 s⁻¹ | kon [6]: 77900 M⁻¹ s⁻¹

Second part, the binder after the results:

Kd [1]: 15.3 pM | Kd [2]: 123 pM | Kd [3]: 154 pM
B2: 4-H3 (antibody, human IgG1, V domains shown)
VH: B1 VH with V3L
VL: B1 VL with I2Y, E3D, Y30A, H92Y, H94F, T96S, T97N, D98G
notes: Rabbit-derived variable domains expressed as human IgG1; also called clone 4-H3

Kd [4]: 123 pM | Kd [2]: 54.9 pM | Kd [7]: 25.3 pM | Kd [3]: 79 pM
B4: 1-G5 (antibody, human IgG1, V domains shown)
VH: B3 VH with N30S, S34T, I53T, Y57F, E63K, I68T
VL: DPVMTQTASSVSAAVGGTVTINCQASQSVYNNNYLSWYQQKPGQPPKLLIYDASTLASGVPSRFSGNGSGTQFTLTISGVQCDDAATYYCQGSYYSGGWDTAFGGGTKVVVK
notes: Rabbit-derived variable domains expressed as human IgG1; also called clone 1-G5

Kd [4]: 64.1 pM | Kd [2]: 25 pM | EC50 (read off the curve) [8]: ~6 ng/mL | Kd [3]: 38.1 pM
B5: 1-D5 (antibody, human IgG1, V domains shown)
VH: QQQLVESGGRLVTPGTPLTLTCAVSGFSLNNYIMGWVRQAPGKGLEYIGIISTGGSTYYASWAKGRFTISRTSTTMDLKMTSLTTEDTATYFCARGGSSAGAGFNIWGPGTLVTVSS
VL: DIVMTQTPSSVSAAVGDTVTIQCQASQSINSGLAWYQQKPGQPPKRLIYKASTLASGVPSRFRGSGSGTDFTLTISDLECADAATYYCQSYHYISANGATFGGGTEVVVE
notes: Rabbit-derived variable domains expressed as human IgG1; also called clone 1-D5; antibody 1-D5

Kd [9]: < 1000 pM | Kd [7]: 13 pM | koff [7]: 3.9e-07 s⁻¹ | kon [7]: 29900 M⁻¹ s⁻¹
B8: 1-G5_H2_L0 (antibody, human IgG1, kappa)
heavy: not shown
light: B6 light with P2I
notes: humanised, human IgG1 kappa

Kd [9]: < 1000 pM | Kd [7]: 1.1 pM | koff [7]: 9.05e-08 s⁻¹ | kon [7]: 82400 M⁻¹ s⁻¹
B9: 1-G5_H0_L0 (antibody, human IgG1, kappa)
heavy: not shown
light: B6 light with P2I
notes: humanised, human IgG1 kappa

Kd [9]: < 1000 pM | Kd [7]: 12.9 pM | koff [7]: 1.02e-06 s⁻¹ | kon [7]: 79000 M⁻¹ s⁻¹
B10: 1-G5_H0_L1 (antibody, human IgG1, kappa)
heavy: not shown
light: B6 light
notes: humanised, human IgG1 kappa

Kd [9]: < 1000 pM | Kd [7]: 11.2 pM | koff [7]: 8.74e-07 s⁻¹ | kon [7]: 78100 M⁻¹ s⁻¹
B11: 3-H9_H2_L0 (antibody, human IgG1, kappa, V domains shown)
VH: QQLVESGGGVVQPGRSLRLSCAASGFSLSNYDMSWVRQAPGKGLEWIGSIHAIGITYYANWAEGRFTISRDKNTVYLQMNSLRAEDTATYFCARGLVDLNMWGQGTLVTVSS
VL: B12 VL
notes: humanised, human IgG1 kappa

Kd [9]: < 1000 pM | Kd [6]: 1.77 pM | koff [6]: 2.99e-07 s⁻¹ | kon [6]: 169000 M⁻¹ s⁻¹
B14: 1-D5_H0_L1 (antibody, human IgG1, kappa, V domains shown)
VH: B15 VH with S28T, L29F, N30S
VL: B15 VL with L46R
notes: humanised, human IgG1 kappa
